Results on 3 molecules are retold here after PMC4525147.

Where no end group is shown, it is not given here.

The target in assay [1] is dicalcin (wild type).
Assay [2] has as its target gp41, the Xenopus laevis ZP3, of the vitelline envelope (Xenopus laevis).

Take RYEIINQNGCLVDGKLDDSSSAF (also: biotin) [gpp2, gp41-derived peptide]: in assay [1], the in vitro fertilization rate after preincubation of the VE with gpp2 (concentration series, highest at 4 μM), normalised to control is 132 % of control.
With AALCKL (also: biotin) [dcp15, dicalcin-derived peptide], in assay [2], the Kd of the concentration dependence of the inhibition of in vitro fertilization is 46 nM and the in vitro fertilization rate after pretreatment of the VE with the peptide at 4 μM, normalised to control was 32 % of control.
On to SFSCNQKNK (also: biotin) [dcp11, dicalcin-derived peptide], for which, in assay [2], the Kd of the concentration dependence of the inhibition of in vitro fertilization is 33 nM and the in vitro fertilization rate after pretreatment of the VE with the peptide at 4 μM, normalised to control is 25 % of control.
